Measurements: publication PMC8209050 (Nature Communications, 2021)
Numbering of substitutions follows the chain as printed.

B1: 254 (antibody, V domains shown)
VH: EVQLLESGGGLVQPGGSLRLSCAASGFTFSSSAMHWVRQAPGKGLEWVSAIGTGGDTYYADSVKGRFTISRDNSKNTLYLQMNSLRAEDTAVYYCAREGDGYNFYFDYWGQGTLVTVSS
VL: DIQMTQSPSSLSASVGDRVTITCRASQGISSYLAWYQQKPGKAPKLLIYDASSLQIGVPSRFSGSGSGTDFTLTISSLQPEDFATYYCLQSYSTPPWTFGQGTKVEIK
B2: 178 (antibody, V domains shown)
VH: QVQLVQSGAEVKKPGASVKVSCKASGYTFTDYHMHWVRQAPGQGLEWMGWINPNSGGTNYAQKFQGRVTMTRDTSTSTVYMELSSLRSEDTAVYYCARDISSWYEITKFDPWGQGTLVTVSS
VL: EIVMTQSPATLSVSPGERATLSCKASQSVSGTYLAWYQQKPGQAPRLLIYGASTRATGIPARFSGSGSGTEFTLTISSLQSEDFAVYYCLQTHSYPPTFGQGTKVEIK
B3: 56 (antibody, V domains shown)
VH: QVQLVQSGAEVKKPGASVKVSCKASGYTFTSYGISWVRQAPGQGLEWMGWISAYNGNTNYAQKLQGRVTMTRDTSTSTVYMELSSLRSEDTAVYYCARDIGPIDYWGQGTLVTVSS
VL: DIQMTQSPSSLSASVGDRVTITCRASQGISSYLAWYQQKPGKAPKLLIYDASNLQSGVPSRFSGSGSGTDFTLTISSLQPEDFATYYCQQANSFPSTFGQGTKVEIK
B4: mAb 46, full-length IgG (antibody, V domains shown)
VH: EVQLLESGGGLVQPGRSLRLSCAASGFTFSSYAMSWVRQAPGKGLEWVSTIYSGGSTYYADSVKGRFTISRDNSKNTLYLQMNSLRAEDTAVYYCARGDSRDAFDIWGQGTMVTVSS
VL: B3 VL with G28S, Y32W, Q55E, S56T, A91S, N92Y, F94T, S96F, Q100P, E105D
notes: also called antibody 46
B5: 158 (antibody, V domains shown)
VH: QVQLVQSGAEVKKPGASVKVSCKASGYTFTGYYMHWVRQAPGQGLEWMGWINPLNGGTNFAPKFQGRVTMTRDTSTSTVYMELSSLRSEDTAVYYCARDPGGSYSNDAFDIWGQGTLVTVSS
VL: B3 VL with G28S, S31R, A34N, Q55E, S96L, Q100G, E105D
B6: 128 (antibody, V domains shown)
VH: QVQLVQSGAEVKKPGASVKVSCKASGYTFTHYYMHWVRQAPGQGLEWMGIINPSSSSASYSQKFQGRVTMTRDTSTSTVYMELSSLRSEDTAVYYCARDGRYGSGSYPFDYWGQGTLVTVSS
VL: B3 VL with G28N, S31R, A34N, Q55E, S56T, S93G, S96P, V104L
B7: mAb 324, full-length IgG (antibody, V domains shown)
VH: QVQLVQSGAEVKKPGASVKVSCKASGGTFNNYGISWVRQAPGQGLEWMGWMNPNSGNTGYAQKFQGRVTMTRDTSTSTVYMELSSLRSEDTAVYYCARVGDYGDYIVSPFDLWGRGTLVTVSS
VL: B3 VL with G28S, S30T, S31T, A34N, Q55E, S56T, A91S, N92Y, F94T, S96P
B8: mAb 82, full-length IgG (antibody, V domains shown)
VH: QVQLVQSGAEVKKPGASVKVSCKASGGSFSTSAFYWVRQAPGQGLEWMGWINPYTGGTNYAQKFQGRVTMTRDTSTSTVYMELSSLRSEDTAVYYCARSRALYGSGSYFDYWGQGTLVTVSS
VL: B3 VL with G28V, S31N, Q55E, S56T, A91S, N92F, F94P, S96P, K103R, V104L
B9: 64 (antibody, V domains shown)
VH: EVQLLESGGGLVQPGGSLRLSCAASGFPFSQHGMHWVRQAPGKGLEWVSAIDRSGSYIYYADSVKGRFTISRDNSKNTLYLQMNSLRAEDTAVYYCARDTYGGKVTYFDYWGQGTLVTVSS
VL: B3 VL with Y32H, Q55E, S56T, A91T, N92Y, F94T, S96W
B10: Fab 46 (Fab, V domains shown)
VH: B4 VH
VL: B3 VL with G28S, Y32W, Q55E, S56T, A91S, N92Y, F94T, S96F, Q100P, E105D
B11: mAb 236, full-length IgG (antibody, V domains shown)
VH: QVQLVQSGAEVKKPGASVKVSCKASGGTFTSYGINWVRQAPGQGLEWMGWMNPNSGNTGYAQKFQGRVTMTRDTSTSTVYMELSSLRSEDTAVYYCASRGIQLLPRGMDVWGQGTTVTVSS
VL: not shown
B12: 120 (antibody, V domains shown)
VH: QVQLVQSGAEVKKPGASVKVSCKASGYTFTSYDINWVRQAPGQGLEWMGMIDPSGGSTSYAQKFQGRVTMTRDTSTSTVYMELSSLRSEDTAVYYCAKDFGGGTRYDYWYFDLWGRGTLVTVSS
VL: EIVMTQSPATLSVSPGERATLSCRASQSVSSRYLAWYQQKPGQAPRLLIYGASTRATGIPARFSGSGSGTEFTLTISSLQSEDFAVYYCQQYYTTPRTFGQGTRLEIK
B13: mAb 80, full-length IgG (antibody, V domains shown)
VH: QVQLVQSGAEVKKPGSSVKVSCKASGGTFNRYAFSWVRQAPGQGLEWMGGIIPIFGTANYAQKFQGRVTITADESTSTAYMELSSLRSEDTAVYYCARSTRELPEVVDWYFDLWGRGTLVTVSS
VL: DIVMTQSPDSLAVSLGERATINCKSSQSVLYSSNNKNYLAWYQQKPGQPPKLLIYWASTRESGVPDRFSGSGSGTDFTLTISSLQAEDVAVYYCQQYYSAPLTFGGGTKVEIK
B14: 349 (antibody, V domains shown)
VH: EVQLLESGGGLVQPGGSLRLSCAASGFTFSNYGMHWVRQAPGKGLEWVSGISSAGSITNYADSVKGRFTISRDNSKNTLYLQMNSLRAEDTAVYYCAGNHAGTTVTSEYFQHWGQGTLVTVSS
VL: DIQMTQSPSSLSASVGDRVTITCRASQSISSWLAWYQQKPGKAPKLLIYDTSNLETGVPSRFSGSGSGTDFTLTISSLQPEDFATYYCQQSYTTPWTFGQGTRLEIK
B15: 160 (antibody, V domains shown)
VH: QVQLVQSGAEVKKPGASVKVSCKASGYTFTGHDMHWVRQAPGQGLEWMGIINPSGGSTSYAQKFQGRVTMTRDTSTSTVYMELSSLRSEDTAVYYCARANSLRYYYGMDVWGQGTMVTVSS
VL: B14 VL with I29V, D50A, T51A, N53S, E55Q, T56S, S91G, W96Y, R103K
B16: 108 (antibody, V domains shown)
VH: QVQLVQSGAEVKKPGASVKVSCKASGYIFSRYAIHWVRQAPGQGLEWMGWMNPISGNTDYAPNFQGRVTMTRDTSTSTVYMELSSLRSEDTAVYYCAKDGSQLAYLVEYFQHWGQGTLVTVSS
VL: B14 VL with S28V, S30T, S31N, W32N, T51A, N53T, T94F, W96Y, R103K, L104V
B17: Fab 298 (Fab, V domains shown)
VH: QVQLVQSGAEVKKPGASVKVSCKASGGTFSTYGISWVRQAPGQGLEWMGWISPNSGGTDLAQKFQGRVTMTRDTSTSTVYMELSSLRSEDTAVYYCASDPRDDIAGGYWGQGTLVTVSS
VL: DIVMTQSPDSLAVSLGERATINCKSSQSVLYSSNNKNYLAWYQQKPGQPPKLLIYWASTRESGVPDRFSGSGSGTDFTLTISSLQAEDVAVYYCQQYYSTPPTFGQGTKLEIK
notes: also called 298 Fab
B18: mAb 298, full-length IgG (antibody, V domains shown)
VH: B17 VH
VL: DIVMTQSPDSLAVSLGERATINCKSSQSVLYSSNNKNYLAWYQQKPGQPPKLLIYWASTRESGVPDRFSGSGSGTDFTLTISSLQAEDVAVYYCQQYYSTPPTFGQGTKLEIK
notes: also called IgG 298; antibody 298
B19: Fab 52 (Fab, V domains shown)
VH: QVQLVQSGAEVKKPGSSVKVSCKASGYTFTSYGISWVRQAPGQGLEWMGGIIPMFGTTNYAQKFQGRVTITADKSTSTAYMELSSLRSEDTAVYYCARDRGDTIDYWGQGTLVTVSS
VL: DIQMTQSPSSLSASVGDRVTITCRASQGISNNLNWYQQKPGKAPKLLIYAASSLESGVPSRFSGSGSGTDFTLTISSLQPEDFATYYCQQGNGFPLTFGPGTKVDIK
notes: also called 52 Fab
B20: mAb 52, full-length IgG (antibody, V domains shown)
VH: B19 VH
VL: B19 VL
notes: also called antibody 52

Experiments:
[1] = target: T1, SARS-CoV-2 Spike receptor binding domain (RBD), wild type, His-tagged (SARS-CoV-2, UniProt P0DTC2)
[2] = target: T1, SARS-CoV-2 Spike receptor binding …; test: BLI; conditions: both partners purified
[3] = target: T1, SARS-CoV-2 Spike receptor binding …; test: cryo-EM structure; conditions: both partners purified
[4] = target: T1, SARS-CoV-2 Spike receptor binding …; test: crystal structure; conditions: both partners purified

Row | Binder | Kd [1] [nM] | binding result [2] | further results
1 | B1 | 127 | – | –
2 | B2 | 72 | – | –
3 | B3 | 23 | – | –
4 | B4 | – | binds | –
5 | B5 | 172 | – | –
6 | B6 | 57 | – | –
7 | B7 | – | binds | –
8 | B8 | – | binds | –
9 | B9 | 97 | – | –
10 | B10 | – | – | binding result [3]: binds
11 | B11 | – | binds | –
12 | B12 | 24 | – | –
13 | B13 | – | binds | –
14 | B14 | 74 | – | –
15 | B15 | 7.7 | – | –
16 | B16 | 72 | – | –
17 | B17 | – | – | binding result [4]: binds
18 | B18 | – | binds | –
19 | B19 | – | – | binding result [4]: binds
20 | B20 | – | binds | –
